# From US20210061875A1
# Assays:
# [1] = target: myelin oligodendrocyte glycoprotein 35-55 peptide (MOG35-55) in the context of I-A(b) (mouse; murine) (UniProt P14434)
# [2] = target: ovalbumin 323-329 peptide (OVA323-339) in the context of I-A(b) (murine) (UniProt P01012)
# [3] = target: ovalbumin 323-329 peptide (OVA323-339) in the context of I-A(b) (murine) (UniProt P01012); remark: listed apart in the source
# [4] = target: myelin oligodendrocyte glycoprotein 35-55 peptide (MOG35-55) in the context of I-A(b) (mouse; murine) (UniProt P14434); remark: listed apart in the source
Substance,"Cytotoxicity (specific lysis of peptide-pulsed splenocytes, in vitro, 3 days) [1] [%]","Cytotoxicity (specific lysis of peptide-pulsed splenocytes, in vitro, 3 days) [2] [%]","Ratio of MOG/OVA pulsed APC (in vivo cytotoxicity, spleen after 48 hours) (ratio of MOG/OVA pulsed APC) [3]","Ratio of MOG/OVA pulsed APC (in vivo cytotoxicity, spleen after 48 hours) (ratio of MOG/OVA pulsed APC) [4]"
OT-II TCR,4,32,6.2,–
2D2 TCR,17,3,–,0.7
